We go through 16 sequences from patent US20090258363.

Read-outs that look alike come from different tables or passages of the source.

Series [1] concerns CCR-5 ZFN (AAACTGCAAAAG) (synthetic). Kind of series: cell_activity. The note with it: K562, with p31.
Series [2] deals with ZFP-FokI 4-residue ZC linker (synthetic). Briefly: cleavage_in_vitro.
The test system of series [3] is ZFP-FokI 10-residue ZC linker (synthetic). Briefly: cleavage_in_vitro.
For series [4], the system named is ZFP-FokI 2-residue ZC linker (synthetic). Kind of series: cleavage_in_vitro.
Series [5] deals with 296S ZFP-FokI E490K E490K (FokI numbering) (synthetic). Kind of series: cell_activity. The settings on record: with 287 Q486E; 0.01 alone.
For series [6], the system named is 296S ZFP-FokI (cells) (synthetic). Briefly: cell_activity. The note with it: with 287; 0.6 alone, 0.01 donor only.
For series [7], the system named is CCR-5 ZFN (GATGAGGATGAC) (synthetic). Briefly: cell_activity. The note with it: K562, with p32.
Series [8] has as its system 287A ZFP-FokI (cells) (synthetic). Briefly: cell_activity. The settings on record: with 296; 0.16 alone, 0.01 donor only.
Series [9] relates to 287A ZFP-FokI Q486E Q486E (FokI numbering) (synthetic). Briefly: cell_activity. The note with it: with 296 E490K; 0.0 alone.

In [1], “AAACTGCAAAAG (double strand) [CCR-5 site 2]” showed an activity (% targeted insertion) of 1.
Regarding “CTAGCATTATCCGAGTTACACAACTCGGATAATGCTAG (double strand) [4 bp separation]”, the activity turned out to be 74 % cleaved in series [2] (Mg, Zn, 37 C); 4 % cleaved in series [3]; 74 % cleaved in [4].
The sequence “CTAGCATTATCCGAGTTCAACCACCAACCACACCAACACAACTCGGATAATGCTAG (double strand) [22 bp separation]” displayed an activity in series [2] of 5 % cleaved.
The same measure, in the same setting: as for “CTAGCATTATCCGAGTTCAACCACCAACCACACCAACACCACCAACTCGGATAATGCTAG (double strand) [26 bp separation]”, the figure is 35 % cleaved; as for “CTAGCATTATCCGAGTTCAACCACCAACCACACCAACTCGGATAATGCTAG (double strand) [17 bp separation]”, 77 % cleaved; as for “CTAGCATTATCCGAGTTCACACAACTCGGATAATGCTAG (double strand) [5 bp separation]”, 92 % cleaved.
“CTAGCATTATCCGAGTTCACACACAACTCGGATAATGCTAG (double strand) [7 bp separation]” displayed an activity in series [2] of 80 % cleaved.
The same measure, in the same setting: as for “CTAGCATTATCCGAGTTCACACACACAACTCGGATAATGCTAG (double strand) [9 bp separation]”, the figure is 23 % cleaved.
As to “CTAGCATTATCCGAGTTCACCACACAACTCGGATAATGCTAG (double strand) [8 bp separation]”, the activity in [2] was determined as 8 % cleaved; in series [3], 63 % cleaved.
As to “CTAGCATTATCCGAGTTCACCACCAACACAACTCGGATAATGCTAG (double strand) [12 bp separation]”, in series [2], the activity is 22 % cleaved.
In the case of “CTAGCATTATCCGAGTTCACCACCAACCACACAACTCGGATAATGCTAG (double strand) [15 bp separation]”, the figures for the activity in series [2] and in series [3] were 97 % cleaved and 88 % cleaved, respectively.
With “CTAGCATTATCCGAGTTCACCACCAACCACACCAACTCGGATAATGCTAG (double strand) [16 bp separation]”, the figures for the activity in series [2] and in [4] were 100 % cleaved and 59 % cleaved, respectively.
On to “CTAGGCATTATCCGAGTTCACCACAACTCGGATAATGACTAG (double strand) [6 bp separation]”, for which the figures for the activity in series [2], in series [3] and in [4] were 95 % cleaved, 76 % cleaved and 78 % cleaved, respectively.
In the case of GAAGCAGCA (double strand) [296S site], the values for the activity (% corrected cells) in series [5] and in [6] were 0.62 and 1.2, respectively.
With “GATGAGGATGAC (double strand) [CCR-5 site 1]”, the activity (% targeted insertion) in [7] was 1.
On to GGGGTAGCGG (double strand) [287A site], for which the activity (% corrected cells) was 1.2 in [8] and 0.62 in series [9].
